Residue numbers refer to the chain shown, from its start. Numbers in names are those of the source. Read-outs that look alike come from different tables or passages of the source.
What was measured:
[1] = target: Recombinant human IL-17A (human, UniProt Q16552 20-155, limits assumed); assay: SPR
Target sequence in this assay (Q16552 20-155 limits assumed): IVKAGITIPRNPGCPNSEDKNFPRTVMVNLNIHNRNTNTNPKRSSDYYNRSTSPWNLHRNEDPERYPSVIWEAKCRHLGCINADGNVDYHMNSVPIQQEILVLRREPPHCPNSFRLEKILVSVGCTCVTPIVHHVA

[2] = target: His-tagged Influenza B Hemagglutinin (B/Brisbane/60/2008) (Influenza B virus (B/Brisbane/60/2008)); assay: SPR
[3] = target: T1, His-tagged recombinant human CD-19 (human, UniProt P15391 20-291, limits assumed); assay: SPR
T1 sequence (looked up): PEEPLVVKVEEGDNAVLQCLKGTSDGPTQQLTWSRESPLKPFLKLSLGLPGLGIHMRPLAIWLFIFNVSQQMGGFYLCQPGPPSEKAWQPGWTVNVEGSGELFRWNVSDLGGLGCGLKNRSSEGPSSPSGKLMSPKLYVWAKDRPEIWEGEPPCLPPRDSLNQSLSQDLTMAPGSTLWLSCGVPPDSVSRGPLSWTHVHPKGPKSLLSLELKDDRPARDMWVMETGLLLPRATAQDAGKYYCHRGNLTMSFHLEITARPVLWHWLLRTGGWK

[4] = target: T1, His-tagged recombinant human CD-19; assay: SPR; remark: listed apart in the source
[5] = target: T2, His-tagged Influenza B Hemagglutinin (B/Brisbane/60/2008) (Influenza B (B/Brisbane/60/2008)); assay: SPR
[6] = target: T3, His-tagged recombinant human CD-19 (human, UniProt P15391 20-291, limits assumed); assay: SPR; remark: listed apart in the source
T3 sequence (looked up): T1 sequence (looked up)

[7] = target: T2, His-tagged Influenza B Hemagglutinin …; assay: SPR; remark: listed apart in the source
[8] = target: T3, His-tagged recombinant human CD-19; assay: SPR; remark: listed apart in the source
[9] = target: T4, Recombinant HER2 protein (HER2-ECD) (UniProt P04626 23-652, limits assumed); assay: SPR
[10] = target: T4, Recombinant HER2 protein (HER2-ECD); assay: SPR, Fab captured, HER2 as analyte
[11] = target: T5, His-tagged recombinant human CD-19 (human, UniProt P15391 20-291, limits assumed); assay: SPR; remark: listed apart in the source
T5 sequence (looked up): T1 sequence (looked up)

[12] = target: T6, Recombinant human IL-17A (human, UniProt Q16552 20-155, limits assumed); assay: SPR; remark: listed apart in the source
T6 sequence (Q16552 20-155 limits assumed): as the sequence (Q16552 20-155 limits assumed) above

[13] = target: T6, Recombinant human IL-17A; assay: SPR; remark: listed apart in the source

B1: CAT-2200 Fab heterodimer H1L1 of designs 10662-10731 and 10662-10733 (H1 L45F, L1 unmodified) (Fab, name in Kabat numbering, V domains shown, not shown: small tags and cut ends)
VH: EVQLLESGGGLVQPGGSLRLSCAASGFTFSSYAMSWVRQAPGKGFEWVSAISGSGGSTYYADSVKGRFTISRDNSKNTLYLQMNSLRAEDTAVYYCARDLIHGVTRNWGQGTLVTVSS
VL: NFMLTQPHSVSESPGKTVTISCTRSSGSLANYYVQWYQQRPGSSPTIVIFANNQRPSGVPDRFSGSIDSSSNSASLTISGLKTEDEADYYCQTYDPYSVVFGGGTKLTVLG
Kd [1]: 0.29 nM

B2: Design 2979 bispecific antibody, System C (CR8071 H1/L1 & SGN-CD19a H2/L2) (bispecific antibody)
chain 1: QVQLVQSGAEVKKPGASVRVSCRASGYIFTESGITWVRQAPGQGLEWMGWISGYSGDTKYAQKLQGRVTMTKDTSTTTAYMELRSLRYDDTAVYYCARDVQYSGSYLGAYYFDYWSPGTLVTVSSASTKGPSVFPLAPSSKSTSGGTAALGCLVKDYFPEPVTVSWNSGALTSGVHTFPAVLQSSGLYSLKSVVTVPSSSLGTQTYICNVNHKPSNTKVDKKVEPKSCDKTHTCPPCPAPELLGGPSVFLFPPKPKDTLMISRTPEVTCVVVDVSHEDPEVKFNWYVDGVEVHNAKTKPREEQYNSTYRVVSVLTVLHQDWLNGKEYKCKVSNKALPAPIEKTISKAKGQPREPQVYVYPPSRDELTKNQVSLTCLVKGFYPSDIAVEWESNGQPENNYKTTPPVLDSDGSFALVSKLTVDKSRWQQGNVFSCSVMHEALHNHYTQKSLSLSPG
chain 2: not shown
chain 3: not shown
chain 4: EIVLTQSPATLSLSPGERATLSCSASSSVSYMHWYQQKPGQAPRLLIYDTSKLASGIPARFSGSGSGTDFTLTISSLEPEDFAVYYCFQGSVYPFTFGQGTKLEIKRTVAAPSVFIFPPSDEQLKSGTARVGCLLNNFYPREAKVQWKVDNALQSGNSQESVTEQDSKDSTYSLRSTLTLSKADYEKHKVYACEVTHQGLSSPVTKSFNRGEC
Kd [2]: 0.93 nM
Kd [3]: 45.1 nM
Difference in H2L2 log(KD) from wild type [4]: 0.7

B3: Design 4320 bispecific antibody, System C (CR8071 H1/L1 & SGN-CD19a H2/L2) (bispecific antibody)
chain 1: B2 chain 1 with L153K, F178G, K191S
chain 2: not shown
chain 3: not shown
chain 4: B2 chain 4 with Q123K, R130S, G132V, L134A, R175S, T177R
Kd [5]: 0.49 nM
Kd [6]: 258 nM

B4: Design 2816 bispecific antibody, System C (CR8071 H1/L1 & SGN-CD19a H2/L2) (bispecific antibody)
chain 1: B2 chain 1 with Q183K, K191S
chain 2: not shown
chain 3: not shown
chain 4: B2 chain 4 with Q123R, R130S, G132V, Q159K, R175S, T177R
Kd [7]: 0.42 nM
Kd [8]: 281 nM

B5: Pertuzumab Fab heterodimer H2L2 of design 10674-10749 (H2 Q39K, L2 Q38E) (Fab, name in Kabat numbering, V domains shown, not shown: small tags and cut ends)
VH: EVQLVESGGGLVQPGGSLRLSCAASGFTFTDYTMDWVRKAPGKGLEWVADVNPNSGGSIYNQRFKGRFTLSVDRSKNTLYLQMNSLRAEDTAVYYCARNLGPSFYFDYWGQGTLVTVSS
VL: DIQMTQSPSSLSASVGDRVTITCKASQDVSIGVAWYQEKPGKAPKLLIYSASYRYTGVPSRFSGSGSGTDFTLTISSLQPEDFATYYCQQYYIYPYTFGQGTKVEIKR
Kd [9]: 6.09 nM
Change in KD of H2L2 Fab vs wild type, -(log(KD_design)-log(KD_wt)) [10]: 0.12 log(KD) difference

B6: Design 4040 SGN-CD19a H2L2 arm in OAA (one-armed antibody) format (antibody, V domains shown)
VH: QVTLRESGPALVKPTQTLTLTCTFSGFSLSTSGMGVGWIRQPPGKAPEWLAHIWWDDDKRYNPALKSRLTISKDTSKNQVVLTMTNMDPVDTAAYYCARMELWSYYFDYWGQGTLVTVSS
VL: EIVLTQSPATLSLSPGERATLSCSASSSVSYMHWYQQKPGQAFRLLIYDTSKLASGIPARFSGSGSGTDFTLTISSLEPEDFAVYYCFQGSVYPFTFGQGTKLEIKR
Kd [11]: 22.4 nM

B7: Design 4320 bispecific antibody, System A (CAT-2200 H1/L1 & Pertuzumab H2/L2) (bispecific antibody)
chain 1: not shown
chain 2: NFMLTQPHSVSESPGKTVTISCTRSSGSLANYYVQWYQQRPGSSPTIVIFANNQRPSGVPDRFSGSIDSSSNSASLTISGLKTEDEADYYCQTYDPYSVVFGGGTKLTVLGQPKAAPSVFLFPPSSEELQANTATLDCLISDFYPGAVTVAWKADSSPVKAGVETTTPSKQSNNKYAAFSYLSLTPEQWKSHRSYSCQVTHEGSTVEKTVAPTECS
chain 3: not shown
chain 4: DIQMTQSPSSLSASVGDRVTITCKASQDVSIGVAWYQQKPGKAPKLLIYSASYRYTGVPSRFSGSGSGTDFTLTISSLQPEDFATYYCQQYYIYPYTFGQGTKVEIKRTVAAPSVFIFPPSDEKLKSGTASVVCALNNFYPREAKVQWKVDNALQSGNSQESVTEQDSKDSTYSLSSRLTLSKADYEKHKVYACEVTHQGLSSPVTKSFNRGEC
Kd [12]: 0.36 nM

B8: Design 2816 bispecific antibody, System A (CAT-2200 H1/L1 & Pertuzumab H2/L2) (bispecific antibody)
chain 1: not shown
chain 2: B7 chain 2 with F120T, T133K, D137V, F179S, S183E
chain 3: not shown
chain 4: B7 chain 4 with K124R, A135L, Q160K
Kd [13]: 0.51 nM

Source: US20190338048A1 (published 2019)
